Experimental data from patent US20030148463A1 (published 2003).
Values belong to the binder of their own block, whether it stands above or below them. Ends that are not written are not given here. Pep Spots Membrane = cellulose membrane (Jerini Biotools) to which the peptides are covalently attached at their C-termini as individual spots

Tests used:
[1] = target: T1, recombinant soluble human 17-1A-antigen (human, UniProt P16422 24-265); test: SPR (BIACORE 2000), s17-1A immobilized on CM5 chip, 1. set
T1 construct: extracellular domain; also called s17-1A; soluble 17-1A-antigen
T1 sequence (looked up): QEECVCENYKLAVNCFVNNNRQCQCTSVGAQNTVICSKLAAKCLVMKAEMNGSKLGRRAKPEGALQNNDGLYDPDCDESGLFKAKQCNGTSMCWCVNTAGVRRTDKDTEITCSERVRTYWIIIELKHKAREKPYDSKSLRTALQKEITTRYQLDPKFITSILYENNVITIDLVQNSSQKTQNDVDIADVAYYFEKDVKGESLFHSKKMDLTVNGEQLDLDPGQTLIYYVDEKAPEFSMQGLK
Description: Surface plasmon resonance measurement was performed using the BIACORE 2000 device (Biacore AB, Freiburg, Freiburg, Germany). Immobilization of recombinant soluble 17-1A-antigen in each flow cell and analysis of the interaction was carried out with an automatic method in BIACORE 2000. The antigen was covalently coupled to sensor chip CM5 via primary amine groups. After activation of the carboxylated dextran matrix of CM5 sensor chip with a single injection of 80 μl of 0.1 M N-hydroxisuccinimide/0.4 M N-ethyl-N′-(3-dimethylaminopropyl)-carbodiimide (NHS/EDC9) through all four flow cells, flow cells 1,2,3 and 4 were successively included ito the flow path during injection of s17-1A-antigen (60 μg/ml in 10 mM sodium acetate, pH 4.7). Different contact times of 17-1A to the activated surface lead to approximately 2500 response units (RU9 in flow cell 1, […] in flow cell 2, 780 RU in flow cell 3 and 290 RU in flow cell 4). Excess activated esters were blocked by injection of 85 μl 1 M ethanolamine pH 5 over all four flow cells. Binding experiments were performed at 25° C. in buffer of pH 7.4 containing 10 mM Hepes, 150 mM NaCl, 3 mM EDTA and 0.005% surfactant P20. The binding kinetics of antibodies to immobilized recombinant 17-1A were determined by injecting antibody concentrations ranging from 0.5 to 2 μM. The sensor chip was regenerated between each run with 100 mM Glycin, 500 mM NaCl, 0.005% Tween pH3. The association and dissociation rate constants, Kon and Koff were analysed using BIA-evaluation software from Biacore AB as described (Karlsson, (1991) J Immunol Meth 145: 229-240). Two sets of affinity determinations were carried out (1.set: M79, H79, D7.2, Panorex; 2. set: Panorex, HD70); the murine Panorex was also included in set 2 as internal reference.

17-1A peptide 13 = target: T2, 17-1A peptide 13 (human, cysteine pairing not given here); test: peptide spot membrane, electrotransfer, anti-human secondary antibody, chemoluminescence
T2 construct: also called peptide spot 13
T2 peptide: NNNRQCQCTSVGA-{Pep Spots Membrane}
From the text: (§1) Due to a higher degree of crossreactivity of the secondary HRP-conjugated anti-human immunoglobulin antibody with several peptide spots, bound human antibodies H79 and HD70 were transfered from the Pep Spots Membrane to a blotting membrane, respectively, by means of electrotransfer and subsequently detected by said anti human secondary antibody and chemoluminescence. Specific binding of human antibody H79 could be detected mainly at peptide spots 8, 11, 13, 14, 59-60, 77 and 79; however, no binding was detectable in case of human antibody HD70.
(§2) The PepSpots Membrane with the synthesized peptides was shaken for ten minutes in methanol and then washed three times for ten minutes in TBS-buffer pH8. The membrane was then blocked in casein based blocking solution, containing 0.05 g/ml sucrose for one hour and then once shaken in TBS pH8/0.05%Tween 20 (TBS-T).
(§3) Each of the anti-17-1A antibodies was incubated at room temperature together with the membrane for three hours in blocking solution (1 μg antibody/ml). After three washes in TBS-T for ten minutes each, the horse radish peroxidase (HRP)-conjugated secondary antibody (anti mouse/anti human; 1 μg/ml blocking solution) was incubated for two hours at room temperature together with the membrane. Then the membrane was washed for three times in TBS-T for ten minutes each. Detection of bound antibodies was performed directly on the Pep Spots Membrane in case of M79 according to the protocol of the chemoluminescence kit manufacturer (Boehringer). The blot was regenerated after three washes with TBS-T (10 min.) in a solution containing 50 mM Tris-HCl pH 6.7, 100 mM 2-Mercaptoethanol and 2% (w/v) SDS for 30 min at 50° C. and subsequently reused for epitope mapping of the next antibody. Due to the higher degree of unspecific binding of the anti-human immunoglobulin secondary antibody to the polypeptide-spots on the membrane, a fractionated electrotransfer to a second blotting-membrane followed by detection with the anti-human secondary antibody was carried out in case of HD70 and H79 according to Rüdiger, EMBO 16 (1997) 1501-1507. Incubation with the secondary antibody and antibody detection on the blots was performed as described above.

17-1A peptide 59 = target: T3, 17-1A peptide 59 (human); test: as above
T3 construct: also called peptide spot 59
T3 peptide: ITCSERVRTYWII-{Pep Spots Membrane}
From the text: as §1, §2, §3

17-1A peptide 79 = target: T4, 17-1A peptide 79 (human); test: as above
T4 construct: also called peptide spot 79
T4 peptide: RYQLDPKFITSIL-{Pep Spots Membrane}
From the text: as §1, §2, §3

17-1A peptide 8 = target: T5, 17-1A peptide 8 (human); test: as above
T5 construct: also called peptide spot 8
T5 peptide: NYKLAVNCFVNNN-{Pep Spots Membrane}
From the text: as §1, §2, §3

17-1A peptide 60 = target: T6, 17-1A peptide 60 (human); test: as above
T6 construct: also called peptide spot 60
T6 peptide: CSERVRTYWIIIE-{Pep Spots Membrane}
From the text: as §1, §2, §3

17-1A peptide 14 = target: T7, 17-1A peptide 14 (human, cysteine pairing not given here); test: as above
T7 construct: also called peptide spot 14
T7 peptide: NRQCQCTSVGAQN-{Pep Spots Membrane}
From the text: as §1, §2, §3

17-1A peptide 11 = target: T8, 17-1A peptide 11 (human, cysteine pairing not given here); test: as above
T8 construct: also called peptide spot 11
T8 peptide: NCFVNNNRQCQCT-{Pep Spots Membrane}
From the text: as §1, §2, §3

[2] = target: T1, recombinant soluble human 17-1A-antigen; test: ELISA of periplasma Fab preparations on immobilized s17-1A
Description: As previously mentioned in example I, E. coli XL1 Blue transformed with pComb3H containing one light and the Fd-segment of one heavy chain produce soluble Fab in sufficient amounts after excision of the gene III fragment and induction with IPTG. The heavy chain Fd-segment and the light chain are exported into the periplasma where they assemble and form functional Fab-fragments. For better periplasma preparations the cells were grown in SB-medium supplemented with 20 mM MgCl₂ and are redissolved in PBS after harvesting. By four rounds of freezing at −70° C. and thawing at 37° C., the outer membrane of the bacteria was destroyed by temperature shock and the soluble periplasmatic proteins including the Fab fragments were released into the supernatant. After elimination of intact cells and cell-debris by centrifugation, the supernatants containing the Fab-antibody-fragments were collected and used for further examination. […]
Detection of k8-D4.5 and k5.1-D4.5-Fab-fragments bound to immobilized s17-1A anigen was carried out using a polyclonal biotinylated anti-human-kappa light chain antibody (1 μg/ml PBS) detected with horse raddish conjugated Avidine (1 μg/ml PBS). The signal was developed by adding a substrate solution, containing 2,2′Azino-bis(3-Ethylbenz-Thiazoline-6-Sulfonic Acid) and Na-perborate and detected at a wavelength of 405 nm.

[3] = target: T9, human 17-1A-antigen on cells (Kato gastric cancer cells, 17-1A-transfected CHO cells, colon tissue) (human, UniProt P16422 24-314); test: flow cytometry on Kato cells and 17-1A-transfected CHO cells, periplasma preparation
T9 construct: whole, on cells; also called transmembrane 17-1A; CHO/17-1A
T9 sequence (looked up): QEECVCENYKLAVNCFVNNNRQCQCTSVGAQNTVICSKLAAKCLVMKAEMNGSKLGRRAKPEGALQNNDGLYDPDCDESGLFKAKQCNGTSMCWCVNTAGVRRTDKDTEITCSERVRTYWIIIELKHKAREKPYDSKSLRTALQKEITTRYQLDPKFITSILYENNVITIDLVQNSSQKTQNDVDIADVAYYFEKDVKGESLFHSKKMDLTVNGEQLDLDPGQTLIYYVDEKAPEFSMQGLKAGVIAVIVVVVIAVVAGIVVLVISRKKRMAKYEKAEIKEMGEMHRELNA
From the text: The test for binding of the two 17-1A positive human Fab-fragments (k8-D4.5-Fab and k5.1-D4.5-Fab) on Kato-cells (17-1A expressing gastric cancer cell-line), 17-1A transfected CHO-cells (CHO/17-1A) and non-transfected CHO-cells was again carried out with the periplasma preparations. CHO transfected cell-lines were generated by subcloning of a DNA-fragment encoding the complete amino acid sequence of the 17-1A-antigen also known as GA733-2 (Szala, Proc. Natl. Acad. Sci. U.S.A. 87 (1990), 3542-3546), into the eucaryotic expression vector pEF-DHFR (Mack, , Proc. Natl. Acad. Sci. U.S.A. 92 (1995) 7021-7025) according to standard procedures (Sambrook, Molecular Cloning; A Laboratory Manual, Second Edition, Cold Spring Harbour Laboratory Press, Cold Spring Harbour, N.Y. (1989)). The resulting plasmid was linearized with NdeI and transfected into DHFR-deficient CHO-cells for stable expression. The expression of transmembrane 17-1A was increased by stepwise gene amplification induced by subsequent addition of increasing concentrations of the DHFR-inhibitor Methotrexat (MTX) to a final concentration of 500 nM, with the concentration steps in between being 20 nM and 100 nM (Kaufmann, Methods Enzymol. 185 (1990), 537-566). […] Labeled cells were then analyzed by flow cytometry.

[4] = target: recombinant soluble human 17-1A-antigen (human) (UniProt P16422); test: SPR (BIACORE 2000), s17-1A immobilized on CM5 chip, 1. set
[5] = target: recombinant soluble human 17-1A-antigen (human) (UniProt P16422); test: SPR (BIACORE 2000), s17-1A immobilized on CM5 chip, 2. set (internal reference)

Kd [1]: 340 nM
koff [1]: 0.0072 s⁻¹
kon [1]: 21000 M⁻¹ s⁻¹
binding result (17-1A peptide 13): binds
binding result (17-1A peptide 59): binds
binding result (17-1A peptide 79): binds
binding result (17-1A peptide 8): binds
binding result (17-1A peptide 60): binds
binding result (17-1A peptide 14): binds
binding result (17-1A peptide 11): binds
B1: H79-huIgG1 (VD4.5huIgG1-k8) (antibody, V domains shown)
VH: EVQLLESGGGVVQPGRSLRLSCAASGFTFSSYGMHWVRQAPGKGLEWVAVISYDGSNKYYADSVKGRFTISRDNSKNTLYLQMNSLRAEDTAVYYCAKDMGWGSGWRPYYYYGMDVWGQGTTVTVSS
VL: ELQMTQSPSSLSASVGDRVTITCRTSQSISSYLNWYQQKPGQPPKLLIYWASTRESGVPDRFSGSGSGTDFTLTISSLQPEDSATYYCQQSYDIPYTFGQGTKLEIK
notes: Complete antibody produced in CHO cells; also called H79 human IgG1; human H79

binding result [2]: binds
binding result [3]: binds
B2: k5.1-D4.5-Fab (Fab, V domains shown)
VH: B1 VH
VL: ELQMTQSPSSLSASVGDRVTITCRASQSISSYLNWYQQKPGQPPKLLIYWASTRESGVPDRFSGSESGTNYTLTISSLQPEDFATYFCQQSDSLPITFGQGTRLDIQ
notes: Soluble Fab tested as an E. coli periplasma preparation

Kd [4]: 200 nM
koff [4]: 0.022 s⁻¹
kon [4]: 110000 M⁻¹ s⁻¹
Kd [5]: 270 nM
koff [5]: 0.027 s⁻¹
kon [5]: 100000 M⁻¹ s⁻¹
B3: Panorex (antibody, INN chains, looked up, V domains shown)
VH: QVQLQQSGAELVRPGTSVKVSCKASGYAFTNYLIEWVKQRPGQGLEWIGVINPGSGGTNYNEKFKGKATLTADKSSSTAYMQLSSLTSDDSAVYFCARDGPWFAYWGQGTLVTVSA
VL: NIVMTQSPKSMSMSVGERVTLTCKASENVVTYVSWYQQKPEQSPKLLIYGASNRYTGVPDRFTGSGSATDFTLTISSVQAEDLADYHCGQGYSYPYTFGGGTKLEIK
